Laboratory results: article PMC3826599

Legend:
[1] = molecular target: Giardia lamblia macrophage migration inhibitory factor (Giardia lamblia ATCC 50803); assay: SEC
[2] = molecular target: Giardia lamblia macrophage migration inhibitory factor (Giardia lamblia ATCC 50803); assay: crystal structure

Giardia lamblia macrophage migration inhibitory factor (natural protein)
stoichiometry N [1]: 3 | stoichiometry N [2]: 3
